Laboratory results taken from PMC3527473, “The C-Terminus of ClpC1 of Mycobacterium tuberculosis Is Crucial for Its Oligomerization and Function” (PLoS ONE, 2012).

Target: the molecule itself
Test: SEC; Superdex-200 (1×30 cm) in buffer A (50 mM Tris-HCl pH 7.6, 100 mM KCl, 5 mM DTT, 10% glycerol, 0.01% Triton X-100) with 15 mM ATP and 10 mM MgCl2; protein pre-incubated with 15 mM ATP and 10 mM MgCl2 for 30 min at 25°C; monomer to hexamer; fractions checked by SDS-PAGE

B1: ClpC1-Δ3 (N-terminal truncated mutant, both N-terminal domains deleted) (domain or fragment)
chain: REGEGVAAQVLVKLGAELTRVRQQVIQLLSGYQGKEAAEAGTGGRGGESGSPSTSLVLDQFGRNLTAAAMEGKLDPVIGREKEIERVMQVLSRRTKNNPVLIGEPGVGKTAVVEGLAQAIVHGEVPETLKDKQLYTLDLGSLVAGSRYRGDFEERLKKVLKEINTRGDIILFIDELHTLVGAGAAEGAIDAASILKPKLARGELQTIGATTLDEYRKYIEKDAALERRFQPVQVGEPTVEHTIEILKGLRDRYEAHHRVSITDAAMVAAATLADRYINDRFLPDKAIDLIDEAGARMRIRRMTAPPDLREFDEKIAEARREKESAIDAQDFEKAASLRDREKTLVAQRAEREKQWRSGDLDVVAEVDDEQIAEVLGNWTGIPVFKLTEAETTRLLRMEEELHKRIIGQEDAVKAVSKAIRRTRAGLKDPKRPSGSFIFAGPSGVGKTELSKALANFLFGDDDALIQIDMGEFHDRFTASRLFGAPPGYVGYEEGGQLTEKVRRKPFSVVLFDEIEKAHQEIYNSLLQVLEDGRLTDGQGRTVDFKNTVLIFTSNLGTSDISKPVGLGFSKGGGENDYERMKQKVNDELKKHFRPEFLNRIDDIIVFHQLTREEIIRMVDLMISRVAGQLKSKDMALVLTDAAKALLAKRGFDPVLGARPLRRTIQREIEDQLSEKILFEEVGPGQVVTVDVDNWDGEGPGEDAVFTFTGTRKPPAEPDLAKAGAHSAGGPEPAAR
binding result: binds
